Experimental data from article PMC5389708 (Nucleic Acids Research, 2017).
Residue numbers refer to the chain shown, from its start. Numbers in names are those of the source.

Legend:
[1] = target: chimpanzee APOBEC3C S188I (chimpanzee); assay: cross-linking
[2] = target: chimpanzee APOBEC3C (chimpanzee); assay: cross-linking
[3] = target: chimpanzee APOBEC3C (chimpanzee); assay: SEC
cross-linking = target: the molecule itself; assay: cross-linking
SEC = target: the molecule itself; assay: SEC

Molecule: chimpanzee APOBEC3C S188I (enzyme)
- stoichiometry N [1]: 2

Molecule: chimpanzee APOBEC3C (enzyme)
- stoichiometry N [2]: 2
- stoichiometry N [3]: 2

B1: gorilla APOBEC3C (enzyme)
chain: MNPQIRNPMKAMYPGTFYFQFKNLWEANDRNETWLCFTVEGIKRRSVVSWKTGVFRNQVDSETHCHAERCFLSWFCDDILSPNTNYQVTWYTSWSPCPECAGEVAEFLARHSNVKLTIFTARLYYFQYPCYQVGLRSLSQEGVAVEIMDYEDFKYCWENFVYNDNEPFKPWKGLKTNFRLLKRRLRESLQ
- stoichiometry N (cross-linking): 2

B2: human APOBEC3C S188I (enzyme)
chain: B1 chain with N85K, E99D, K115N, V133E, S188I
- stoichiometry N (cross-linking): 2

B3: gorilla APOBEC3C S188I (enzyme)
chain: B1 chain with S188I
- stoichiometry N (cross-linking): 2

B4: human APOBEC3C S188I/N115K (enzyme)
chain: B1 chain with N85K, E99D, V133E, S188I
- stoichiometry N (cross-linking): 2

B5: human APOBEC3C N115K (enzyme)
chain: B1 chain with N85K, E99D, V133E
- stoichiometry N (SEC): 2

B6: gorilla APOBEC3C K115N (enzyme)
chain: B1 chain with K115N
- stoichiometry N (cross-linking): 2
